Experimental data reported in patent US20250041437A1 (SUN PHARMA ADVANCED RESEARCH, published 2025).

T1: recombinant human MUC1-SEA (MUC1 antigen, Acrobiosystems, Cat: MU1-H52H9) (human, UniProt P15941 1039-1158)
T1 construct: Bought protein, captured on an anti-His chip (so His-tagged)
T1 sequence: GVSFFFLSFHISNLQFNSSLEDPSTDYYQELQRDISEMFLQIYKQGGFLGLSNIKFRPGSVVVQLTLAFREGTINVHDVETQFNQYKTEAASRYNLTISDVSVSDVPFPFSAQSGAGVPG


What follows are binders tested against T1, recombinant human MUC1-SEA (MUC1 …) (assay: SPR, single cycle kinetics; MUC1 antigen captured on anti-His CM5 chip).

Row | Binder | Kd [nM] | koff [s⁻¹] | kon [M⁻¹ s⁻¹]
1 | humanized IgG1 anti-MUC1-SEA mAb (HM5 LM4) (antibody, V domains shown, also called Humanized anti-MUC1 SEA IgG1; humanized IgG anti-MUC1-SEA mAb) VH: EIQLVQSGAEVKKPGSSVKVSCKVTGHSITRGSSWHWMRQAPGQGLEWIGYIHYGGGTSYNPSLKSRITITRDTSTNTFYMELSSLRSEDTAFYFCARYSYDITYRWFFDVWGQGTLVTVSS VL: DIQMTQSPSTLSASVGDRVTITCRASQNIGTSIHWYQQKPGKAPKLLIKYASESISGVPSRFSGSGSGTEFTLTISSLQPDDFATYYCQQNNNWPLTFGQGTKVEIKR | 0.0397 | 0.000281 | 7.07e+06

Each binder was assayed against T1, recombinant human MUC1-SEA (MUC1 …) (assay: SPR; MUC1 antigen captured on anti-His CM5 chip, antibody as analyte).

Row | Binder | Kd [nM] | koff [s⁻¹] | kon [M⁻¹ s⁻¹]
2 | HM2 LM2 variant of humanized anti-MUC1 antibody SP66 (antibody, V domains shown, Humanized IgG expressed in CHO cells; only variable domains tied to the variant) VH: EIQLVQSGAEVKKPGSSVKVSCKVTGHSITRGSSWHWMRQAPGQGLEWIGYIHYGGGTSYNPSLKSRITITRDTSTNTAYMELSSLRSEDTAFYFCARYSYDITYRWFFDVWGQGTLVTVSS VL: DIQMTQSPSTLSASVGDRVTITCRASQNIGTSIHWYQQKPGKAPKLLIKRASESISGVPSRFSGSGSGTEFTLTISSLQPDDFATYYCQQNNNWPLTFGQGTKVEVK | 0.144 | 0.000255 | 1.77e+06
3 | HM2 LM3 variant of humanized anti-MUC1 antibody SP66 (antibody, V domains shown, Humanized IgG expressed in CHO cells; only variable domains tied to the variant) VH: EIQLVQSGAEVKKPGSSVKVSCKVTGHSITRGSSWHWMRQAPGQGLEWIGYIHYGGGTSYNPSLKSRITITRDTSTNTAYMELSSLRSEDTAFYFCARYSYDITYRWFFDVWGQGTLVTVSS VL: DIQMTQSPSTLSASVGDRVTITCRASQNIGTSIHWYQQKPGKAPKLLIKYASESISGVPSRFSGSGSGTEFTLTISSLQPDDFATYYCQQNNNWPLTFGQGTKVEVK | 0.0598 | 0.000188 | 3.14e+06
4 | HM3 LM2 variant of humanized anti-MUC1 antibody SP66 (antibody, V domains shown, Humanized IgG expressed in CHO cells; only variable domains tied to the variant) VH: EIQLVQSGAEVKKPGSSVKVSCKVTGHSITRGSSWHWMRQAPGQGLEWIGYIHYGGGTSYNPSLKSRATLTRDTSTNTAYMELSSLRSEDTAFYFCARYSYDITYRWFFDVWGQGTLVTVSS VL: DIQMTQSPSTLSASVGDRVTITCRASQNIGTSIHWYQQKPGKAPKLLIKRASESISGVPSRFSGSGSGTEFTLTISSLQPDDFATYYCQQNNNWPLTFGQGTKVEVK | 0.186 | 0.000492 | 2.65e+06
5 | HM3 LM3 variant of humanized anti-MUC1 antibody SP66 (antibody, V domains shown, Humanized IgG expressed in CHO cells; only variable domains tied to the variant) VH: EIQLVQSGAEVKKPGSSVKVSCKVTGHSITRGSSWHWMRQAPGQGLEWIGYIHYGGGTSYNPSLKSRATLTRDTSTNTAYMELSSLRSEDTAFYFCARYSYDITYRWFFDVWGQGTLVTVSS VL: DIQMTQSPSTLSASVGDRVTITCRASQNIGTSIHWYQQKPGKAPKLLIKYASESISGVPSRFSGSGSGTEFTLTISSLQPDDFATYYCQQNNNWPLTFGQGTKVEVK | 0.0775 | 0.00347 | 4.47e+07
6 | HM4 LM2 variant of humanized anti-MUC1 antibody SP66 (antibody, V domains shown, Humanized IgG expressed in CHO cells; only variable domains tied to the variant) VH: EIQLVQSGAEVKKPGSSVKVSCKVTGHSITRGSSWHWMRQAPGQGLEWIGYIHYGGGTSYNPSLKSRATLTRDTSTNTFYMELSSLRSEDTAFYFCARYSYDITYRWFFDVWGQGTLVTVSS VL: DIQMTQSPSTLSASVGDRVTITCRASQNIGTSIHWYQQKPGKAPKLLIKRASESISGVPSRFSGSGSGTEFTLTISSLQPDDFATYYCQQNNNWPLTFGQGTKVEVK | 0.0639 | 0.000261 | 4.08e+06
7 | HM4 LM3 variant of humanized anti-MUC1 antibody SP66 (antibody, V domains shown, Humanized IgG expressed in CHO cells; only variable domains tied to the variant) VH: EIQLVQSGAEVKKPGSSVKVSCKVTGHSITRGSSWHWMRQAPGQGLEWIGYIHYGGGTSYNPSLKSRATLTRDTSTNTFYMELSSLRSEDTAFYFCARYSYDITYRWFFDVWGQGTLVTVSS VL: DIQMTQSPSTLSASVGDRVTITCRASQNIGTSIHWYQQKPGKAPKLLIKYASESISGVPSRFSGSGSGTEFTLTISSLQPDDFATYYCQQNNNWPLTFGQGTKVEVK | 0.0826 | 0.000238 | 2.88e+06
8 | HM5 LM2 variant of humanized anti-MUC1 antibody SP66 (antibody, V domains shown, Humanized IgG expressed in CHO cells; only variable domains tied to the variant) VH: EIQLVQSGAEVKKPGSSVKVSCKVTGHSITRGSSWHWMRQAPGQGLEWIGYIHYGGGTSYNPSLKSRITITRDTSTNTFYMELSSLRSEDTAFYFCARYSYDITYRWFFDVWGQGTLVTVSS VL: DIQMTQSPSTLSASVGDRVTITCRASQNIGTSIHWYQQKPGKAPKLLIKRASESISGVPSRFSGSGSGTEFTLTISSLQPDDFATYYCQQNNNWPLTFGQGTKVEVK | 0.0444 | 0.000213 | 4.8e+06
9 | HM5 LM3 variant of humanized anti-MUC1 antibody SP66 (antibody, V domains shown, Humanized IgG expressed in CHO cells; only variable domains tied to the variant) VH: EIQLVQSGAEVKKPGSSVKVSCKVTGHSITRGSSWHWMRQAPGQGLEWIGYIHYGGGTSYNPSLKSRITITRDTSTNTFYMELSSLRSEDTAFYFCARYSYDITYRWFFDVWGQGTLVTVSS VL: DIQMTQSPSTLSASVGDRVTITCRASQNIGTSIHWYQQKPGKAPKLLIKYASESISGVPSRFSGSGSGTEFTLTISSLQPDDFATYYCQQNNNWPLTFGQGTKVEVK | 0.05 | 0.000198 | 3.97e+06
10 | humanized IgG1 anti-MUC1-SEA mAb (HM5 LM4) (antibody, V domains shown, also called Humanized anti-MUC1 SEA IgG1; humanized IgG anti-MUC1-SEA mAb) VH: EIQLVQSGAEVKKPGSSVKVSCKVTGHSITRGSSWHWMRQAPGQGLEWIGYIHYGGGTSYNPSLKSRITITRDTSTNTFYMELSSLRSEDTAFYFCARYSYDITYRWFFDVWGQGTLVTVSS VL: DIQMTQSPSTLSASVGDRVTITCRASQNIGTSIHWYQQKPGKAPKLLIKYASESISGVPSRFSGSGSGTEFTLTISSLQPDDFATYYCQQNNNWPLTFGQGTKVEIKR | 0.0298 | 0.00015 | 5.02e+06
